# Data taken from IntAct's records for PubMed 29892012.
# B1: Disks large-associated protein 2 (Homo sapiens), Q9P1A6 (parent)
# chain: MGTAQVLPGILQKHCCILPDRNTESQCTLCGEPEEEEAGDLVQPGISFPGPAEEDLDPQYSWSPTQHFNEERYSPAPRSMKGLSGSRTQPPLCSGHTCGLAPPEDCEHLHHGPDARPPYLLSPADSCPGGRHRCSPRSSVHSECVMMPVVLGDHVSSSTFPRMHYSSHYDTRDDCAVAHAGAKINRIPANLLDQFEKQLPLHRDGFHTLQYQRTSAAAEQRSESPGRIRHLVHSVQKLFTKSHSLEGSSKSNANGTKADGRADDHHHAHHAKHSKRSKSKERKPEGKPRPGMSSWWSSDDNLDSDSTYRTPSVLNRHHLGPVAHCYPDALQSPFGDLSLKTSKSNNDVKCSACEGLALTPDAKYLKRSSWSTLTVSQAKEAYRKSSLNLDKPLLHQDAKPALRPCHYLQVPQDEWGGYPTGGKDEEIPCRRMRSGSYIKAMGDEESGESDSSPKTSPKSAILPEPLLKSIGQRPLGEHQTQTYLQAASDVPVGHSLDPAANYNSPKFRSRNQSYMRAVSTLSQASCVSQVSEAEINGQFESVCESVFSEVESQAMDALDLPGCFRTRSHSYLRAIQAGYSQDDECIPMMTPSDITSTIRSTAAVSYTNYKKTPPPVPPRTTSKPLISVTAQSSTESTQDAYQDSRAQRMSPWPQDSRGLYNSTDSLDSNKAMNLALETAAAQRHLPESQSSSVRTSDKAILVSKAEELLKSRCSSIGIQDSEFPEHQPYPRSDVETATDSDTESRGLREYHSVGVQVEDEKRHGRFKRSNSVTAAVQADLELEGFPGHITTEDKGLQFGSSFQRHSEPSTPTQYSAVRTVRTQGLFSYREDYRTQVDTSTLPPPDPWLEPAIDTVETGRMSPCRRDGSWFLKLLHAETKRMEGWCKEMEREAEENDLSEEILGKIRSAVGSAQLLMSQKFQQFYWLCQQNMDPSAMPRPTSQDLAGYWDMLQLSIEDVSMKFDELQRLRLNDWKMMESPERKEERKVPPPIPKKPPKGKFPITREKSLDLPDRQRQEARRRLMAAKRAASFRQNSASERADSIEIYIPEAQTRL
# partner: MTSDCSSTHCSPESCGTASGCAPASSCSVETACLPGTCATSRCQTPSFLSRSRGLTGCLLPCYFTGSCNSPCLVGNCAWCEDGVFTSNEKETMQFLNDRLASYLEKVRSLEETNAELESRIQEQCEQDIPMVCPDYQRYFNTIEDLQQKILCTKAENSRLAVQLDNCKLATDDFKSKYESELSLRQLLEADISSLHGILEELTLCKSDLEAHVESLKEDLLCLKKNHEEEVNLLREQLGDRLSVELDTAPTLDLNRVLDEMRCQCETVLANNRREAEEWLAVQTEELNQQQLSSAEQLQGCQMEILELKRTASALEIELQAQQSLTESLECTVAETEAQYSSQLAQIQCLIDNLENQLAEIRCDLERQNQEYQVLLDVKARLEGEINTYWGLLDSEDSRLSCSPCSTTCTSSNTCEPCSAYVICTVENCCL
# B2: Ligand of Numb protein X 2 (Homo sapiens), Q8N448 (parent)
# chain: MGTTSDEMVSVEQTSSSSLNPLCFECGQQHWTRENHLYNYQNEVDDDLVCHICLQPLLQPLDTPCGHTFCYKCLRNFLQEKDFCPLDRKRLHFKLCKKSSILVHKLLDKLLVLCPFSSVCKDVMQRCDLEAHLKNRCPGASHRRVALERRKTSRTQAEIENENGPTLLDPAGTLSPEADCLGTGAVPVERHLTSASLSTWSEEPGLDNPAFEESAGADTTQQPLSLPEGEITTIEIHRSNPYIQLGISIVGGNETPLINIVIQEVYRDGVIARDGRLLAGDQILQVNNYNISNVSHNYARAVLSQPCNTLHLTVLRERRFGNRAHNHSDSNSPREEIFQVALHKRDSGEQLGIKLVRRTDEPGVFILDLLEGGLAAQDGRLSSNDRVLAINGHDLKYGTPELAAQIIQASGERVNLTIARPGKPQPGNTIREAGNHSSSSQHHTPPPYYSRPSSHKDLTQCVTCQEKHITVKKEPHESLGMTVAGGRGSKSGELPIFVTSVPPHGCLARDGRIKRGDVLLNINGIDLTNLSHSEAVAMLKASAASPAVALKALEVQIVEEATQNAEEQPSTFSENEYDASWSPSWVMWLGLPSTLHSCHDIVLRRSYLGSWGFSIVGGYEENHTNQPFFIKTIVLGTPAYYDGRLKCGDMIVAVNGLSTVGMSHSALVPMLKEQRNKVTLTVICWPGSLV
# partner: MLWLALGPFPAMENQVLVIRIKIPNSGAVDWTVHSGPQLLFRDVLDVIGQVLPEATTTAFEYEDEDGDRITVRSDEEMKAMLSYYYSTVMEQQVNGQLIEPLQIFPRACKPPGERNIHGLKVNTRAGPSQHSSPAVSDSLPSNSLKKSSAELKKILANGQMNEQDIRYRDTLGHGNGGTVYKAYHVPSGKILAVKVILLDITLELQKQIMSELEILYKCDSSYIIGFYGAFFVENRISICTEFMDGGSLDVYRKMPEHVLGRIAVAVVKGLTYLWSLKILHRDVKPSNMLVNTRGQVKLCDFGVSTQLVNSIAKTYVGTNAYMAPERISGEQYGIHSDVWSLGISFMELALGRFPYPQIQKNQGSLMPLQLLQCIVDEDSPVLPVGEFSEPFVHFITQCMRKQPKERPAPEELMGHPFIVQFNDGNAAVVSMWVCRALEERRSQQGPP
# B3: Syntaxin-3 (Homo sapiens), Q13277 (parent)
# chain: MKDRLEQLKAKQLTQDDDTDAVEIAIDNTAFMDEFFSEIEETRLNIDKISEHVEEAKKLYSIILSAPIPEPKTKDDLEQLTTEIKKRANNVRNKLKSMEKHIEEDEVRSSADLRIRKSQHSVLSRKFVEVMTKYNEAQVDFRERSKGRIQRQLEITGKKTTDEELEEMLESGNPAIFTSGIIDSQISKQALSEIEGRHKDIVRLESSIKELHDMFMDIAMLVENQGEMLDNIELNVMHTVDHVEKARDETKKAVKYQSQARKKLIIIIVLVVVLLGILALIIGLSVGLN
# B4: Atos homolog protein B (Homo sapiens), Q7L5A3 (parent)
# chain: MRHVQAEPSPSSEPEAGPSQPPVRQGALQGGLLMGYSPAGGATSPGVYQVSIFSPPAGTSEPHRALKRQAPSTEGPRELKRGPGLGAREGLPPEEPSTVGLLGPEGPGLGLGVASQHFSHRGLCVVEQRSSVTSSWTSGAWSPPCPPSNASCNTLHTRDWASPDPGGQGSLGESPGPAPPGQLHTLDTDLHSLAQIGGKSPVAGVGNGGSLWPRESPGTANGHSPEHTPPGPGPPGPCPTKRRLLPAGEAPDVSSEEEGPAPRRRRGSLGHPTAANSSDAKATPFWSHLLPGPKEPVLDPTDCGPMGRRLKGARRLKLSPLRSLRKGPGLLSPPSASPVPTPAVSRTLLGNFEESLLRGRFAPSGHIEGFTAEIGASGSYCPQHVTLPVTVTFFDVSEQNAPAPFLGIVDLNPLGRKGYSVPKVGTVQVTLFNPNQTVVKMFLVTFDFSDMPAAHMTFLRHRLFLVPVGEEGNANPTHRLLCYLLHLRFRSSRSGRLSLHGDIRLLFSRRSLELDTGLPYELQAVTEAPHNPRYSPLP
# B5: Liprin-alpha-1 (Homo sapiens), Q13136 (parent)
# chain: MMCEVMPTISEAEGPPGGGGGHGSGSPSQPDADSHFEQLMVSMLEERDRLLDTLRETQETLALTQGKLHEVGHERDSLQRQLNTALPQEFAALTKELNVCREQLLEREEEIAELKAERNNTRLLLEHLECLVSRHERSLRMTVVKRQAQSPAGVSSEVEVLKALKSLFEHHKALDEKVRERLRVALERCSLLEEELGATHKELMILKEQNNQKKTLTDGVLDINHEQENTPSTSGKRSSDGSLSHEEDLAKVIELQEIISKQSREQSQMKERLASLSSHVTELEEDLDTARKDLIKSEEMNTKLQRDVREAMAQKEDMEERITTLEKRYLAAQREATSVHDLNDKLENEIANKDSMHRQTEDKNRQLQERLELAEQKLQQTLRKAETLPEVEAELAQRVAALSKAEERHGNIEERLRQMEAQLEEKNQELQRARQREKMNEEHNKRLSDTVDKLLSESNERLQLHLKERMAALEDKNSLLREVESAKKQLEETQHDKDQLVLNIEALRAELDHMRLRGASLHHGRPHLGSVPDFRFPMADGHTDSYSTSAVLRRPQKGRLAALRDEPSKVQTLNEQDWERAQQASVLANVAQAFESDADVSDGEDDRDTLLSSVDLLSPSGQADAHTLAMMLQEQLDAINKEIRLIQEEKENTEQRAEEIESRVGSGSLDNLGRFRSMSSIPPYPASSLASSSPPGSGRSTPRRIPHSPAREVDRLGVMTLLPPSREEVRDDKTTIKCETSPPSSPRALRLDRLHKGALHTVSHEDIRDIRNSTGSQDGPVSNPSSSNSSQDSLHKAPKKKGIKSSIGRLFGKKEKGRPGQTGKEALGQAGVSETDNSSQDALGLSKLGGQAEKNRKLQKKHELLEEARRQGLPFAQWDGPTVVVWLELWVGMPAWYVAACRANVKSGAIMSALSDTEIQREIGISNPLHRLKLRLAIQEIMSLTSPSAPPTSRTTLAYGDMNHEWIGNEWLPSLGLPQYRSYFMECLVDARMLDHLTKKDLRGQLKMVDSFHRNSFQCGIMCLRRLNYDRKELERKREESQSEIKDVLVWSNDRVIRWILSIGLKEYANNLIESGVHGALLALDETFDFSALALLLQIPTQNTQARAVLEREFNNLLVMGTDRRFDEDDDKSFRRAPSWRKKFRPKDIRGLAAGSAETLPANFRVTSSMSSPSMQPKKMQMDGNVSGTQRLDSATVRTYSC
# B6: Myotubularin-related protein 9 (Homo sapiens), Q96QG7 (parent)
# chain: MEFAELIKTPRVDNVVLHRPFYPAVEGTLCLTGHHLILSSRQDNTEELWLLHSNIDAIDKRFVGSLGTIIIKCKDFRIIQLDIPGMEECLNIASSIEALSTLDSITLMYPFFYRPMFEVIEDGWHSFLPEQEFELYSSATSEWRLSYVNKEFAVCPSYPPIVTVPKSIDDEALRKVATFRHGGRFPVLSYYHKKNGMVIMRSGQPLTGTNGRRCKEDEKLINATLRAGKRGYIIDTRSLNVAQQTRAKGGGFEQEAHYPQWRRIHKSIERYHILQESLIKLVEACNDQTHNMDRWLSKLEASNWLTHIKEILTTACLAAQCIDREGASILIHGTEGTDSTLQVTSLAQIILEPRSRTIRGFEALIEREWLQAGHPFQQRCAQSAYCNTKQKWEAPVFLLFLDCVWQILRQFPCSFEFNENFLIMLFEHAYASQFGTFLGNNESERCKLKLQQKTMSLWSWVNQPSELSKFTNPLFEANNLVIWPSVAPQSLPLWEGIFLRWNRSSKYLDEAYEEMVNIIEYNKELQAKVNILRRQLAELETEDGMQESP
# Variants of: B1
# Details: with KRT40, Q6A162
row,effect of a mutation on the interaction,Variant
1,with no effect,R818T

# Variants of: B2
# Details: with mp2k5_human MAP2K5, Q13163
row,effect of a mutation on the interaction,Variant
1,with no effect,P669A

# Variants of: B3
# Details: with stx4_human STX4, Q12846
# stx4_human STX4, Q12846, sequence (Q12846 whole entry): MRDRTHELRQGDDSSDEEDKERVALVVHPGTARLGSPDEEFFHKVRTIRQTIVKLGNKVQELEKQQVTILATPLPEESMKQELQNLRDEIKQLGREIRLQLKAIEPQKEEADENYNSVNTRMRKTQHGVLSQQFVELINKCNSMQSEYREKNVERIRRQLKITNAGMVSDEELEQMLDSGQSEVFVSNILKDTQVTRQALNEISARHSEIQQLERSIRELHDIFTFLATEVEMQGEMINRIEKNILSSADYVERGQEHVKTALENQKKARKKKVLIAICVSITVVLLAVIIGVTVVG
row,effect of a mutation on the interaction,Variant
1,with no effect,K199E

# Variants of: B4
# Details: with mdfi_human MDFI
row,effect of a mutation on the interaction,Variant
1,with no effect,C381Y

# Variants of: B4
# Details: with ikzf1_human IKZF1, Q13422
# ikzf1_human IKZF1, Q13422, sequence (Q13422 whole entry): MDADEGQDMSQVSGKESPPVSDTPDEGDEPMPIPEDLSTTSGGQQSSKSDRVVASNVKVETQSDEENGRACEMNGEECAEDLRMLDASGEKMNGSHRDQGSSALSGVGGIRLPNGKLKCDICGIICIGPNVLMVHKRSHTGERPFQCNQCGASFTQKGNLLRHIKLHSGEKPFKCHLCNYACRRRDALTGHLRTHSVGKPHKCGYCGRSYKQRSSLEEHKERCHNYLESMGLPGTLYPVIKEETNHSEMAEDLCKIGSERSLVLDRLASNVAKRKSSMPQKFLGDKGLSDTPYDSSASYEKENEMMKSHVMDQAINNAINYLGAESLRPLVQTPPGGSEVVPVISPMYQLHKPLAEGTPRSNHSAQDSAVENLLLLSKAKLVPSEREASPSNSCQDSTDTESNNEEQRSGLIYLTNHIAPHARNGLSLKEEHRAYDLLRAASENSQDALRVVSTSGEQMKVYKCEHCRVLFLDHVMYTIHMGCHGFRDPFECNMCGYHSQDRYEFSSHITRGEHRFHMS
row,effect of a mutation on the interaction,Variant
1,disrupting interaction strength,C381Y

# Variants of: B4
# Details: with dnja3_human DNAJA3, Q96EY1
# dnja3_human DNAJA3, Q96EY1, sequence (Q96EY1 whole entry): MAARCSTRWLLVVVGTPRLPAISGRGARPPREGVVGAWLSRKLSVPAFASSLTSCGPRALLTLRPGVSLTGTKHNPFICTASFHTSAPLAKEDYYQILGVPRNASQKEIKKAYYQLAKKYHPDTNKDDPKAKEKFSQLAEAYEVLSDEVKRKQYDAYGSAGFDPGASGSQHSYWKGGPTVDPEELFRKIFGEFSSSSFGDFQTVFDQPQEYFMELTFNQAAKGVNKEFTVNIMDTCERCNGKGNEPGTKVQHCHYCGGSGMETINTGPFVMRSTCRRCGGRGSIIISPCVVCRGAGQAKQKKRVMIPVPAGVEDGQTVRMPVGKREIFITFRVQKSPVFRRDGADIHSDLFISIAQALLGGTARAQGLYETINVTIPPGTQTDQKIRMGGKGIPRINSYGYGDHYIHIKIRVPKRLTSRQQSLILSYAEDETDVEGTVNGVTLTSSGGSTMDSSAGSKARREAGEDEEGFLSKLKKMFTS
row,effect of a mutation on the interaction,Variant
1,disrupting interaction strength,C381Y

# Variants of: B5
# Details: with 2a5d_human PPP2R5D
row,effect of a mutation on the interaction,Variant
1,disrupting interaction strength,L330F

# Variants of: B5
# Details: with ccnh_human CCNH
row,effect of a mutation on the interaction,Variant
1,disrupting interaction strength,L330F

# Variants of: B5
# Details: with txlna_human TXLNA
row,effect of a mutation on the interaction,Variant
1,with no effect,P389L

# Variants of: B5
# Details: with 2a5d_human PPP2R5D
# Remark: another data set of the same source
row,effect of a mutation on the interaction,Variant
1,with no effect,P389L

# Variants of: B5
# Details: with ccnh_human CCNH
# Remark: another data set of the same source
row,effect of a mutation on the interaction,Variant
1,with no effect,P389L

# Variants of: B6
# Details: with emil1_human EMILIN1, Q9Y6C2
# emil1_human EMILIN1, Q9Y6C2, sequence (Q9Y6C2 whole entry): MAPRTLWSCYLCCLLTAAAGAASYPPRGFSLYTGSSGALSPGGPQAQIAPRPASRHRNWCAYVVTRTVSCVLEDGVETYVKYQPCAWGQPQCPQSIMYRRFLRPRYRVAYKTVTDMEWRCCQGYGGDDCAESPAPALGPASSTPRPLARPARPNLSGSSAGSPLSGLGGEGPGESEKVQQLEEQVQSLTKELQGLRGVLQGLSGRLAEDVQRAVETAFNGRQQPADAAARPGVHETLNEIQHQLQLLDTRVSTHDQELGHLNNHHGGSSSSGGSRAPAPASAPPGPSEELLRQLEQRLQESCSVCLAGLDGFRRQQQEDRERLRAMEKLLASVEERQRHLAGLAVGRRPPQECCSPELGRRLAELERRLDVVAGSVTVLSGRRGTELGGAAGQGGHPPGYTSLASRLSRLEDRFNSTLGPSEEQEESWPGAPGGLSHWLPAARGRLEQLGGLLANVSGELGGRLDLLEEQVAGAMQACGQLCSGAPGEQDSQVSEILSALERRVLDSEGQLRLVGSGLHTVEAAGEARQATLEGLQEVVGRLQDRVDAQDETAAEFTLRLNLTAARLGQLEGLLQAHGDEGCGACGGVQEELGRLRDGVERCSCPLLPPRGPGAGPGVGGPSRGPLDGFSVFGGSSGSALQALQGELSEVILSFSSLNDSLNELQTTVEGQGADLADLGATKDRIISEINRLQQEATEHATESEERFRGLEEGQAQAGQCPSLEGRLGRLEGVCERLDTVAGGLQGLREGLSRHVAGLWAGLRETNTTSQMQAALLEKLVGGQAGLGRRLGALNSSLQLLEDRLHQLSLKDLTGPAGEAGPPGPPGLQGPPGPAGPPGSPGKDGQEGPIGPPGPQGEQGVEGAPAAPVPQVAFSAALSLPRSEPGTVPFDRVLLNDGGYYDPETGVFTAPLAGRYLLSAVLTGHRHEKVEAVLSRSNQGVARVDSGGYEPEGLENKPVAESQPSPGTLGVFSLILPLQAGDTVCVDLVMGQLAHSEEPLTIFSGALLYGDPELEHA
row,effect of a mutation on the interaction,Variant
1,with no effect,R359S
